Test results: paper PMC10786891, “Massively parallel profiling of RNA-targeting CRISPR-Cas13d”

T1: EsCas13d, nuclease-dead (Eubacterium siraeum, UniProt B0MS50, R295A;H300A;R849A;H854A)
T1 sequence: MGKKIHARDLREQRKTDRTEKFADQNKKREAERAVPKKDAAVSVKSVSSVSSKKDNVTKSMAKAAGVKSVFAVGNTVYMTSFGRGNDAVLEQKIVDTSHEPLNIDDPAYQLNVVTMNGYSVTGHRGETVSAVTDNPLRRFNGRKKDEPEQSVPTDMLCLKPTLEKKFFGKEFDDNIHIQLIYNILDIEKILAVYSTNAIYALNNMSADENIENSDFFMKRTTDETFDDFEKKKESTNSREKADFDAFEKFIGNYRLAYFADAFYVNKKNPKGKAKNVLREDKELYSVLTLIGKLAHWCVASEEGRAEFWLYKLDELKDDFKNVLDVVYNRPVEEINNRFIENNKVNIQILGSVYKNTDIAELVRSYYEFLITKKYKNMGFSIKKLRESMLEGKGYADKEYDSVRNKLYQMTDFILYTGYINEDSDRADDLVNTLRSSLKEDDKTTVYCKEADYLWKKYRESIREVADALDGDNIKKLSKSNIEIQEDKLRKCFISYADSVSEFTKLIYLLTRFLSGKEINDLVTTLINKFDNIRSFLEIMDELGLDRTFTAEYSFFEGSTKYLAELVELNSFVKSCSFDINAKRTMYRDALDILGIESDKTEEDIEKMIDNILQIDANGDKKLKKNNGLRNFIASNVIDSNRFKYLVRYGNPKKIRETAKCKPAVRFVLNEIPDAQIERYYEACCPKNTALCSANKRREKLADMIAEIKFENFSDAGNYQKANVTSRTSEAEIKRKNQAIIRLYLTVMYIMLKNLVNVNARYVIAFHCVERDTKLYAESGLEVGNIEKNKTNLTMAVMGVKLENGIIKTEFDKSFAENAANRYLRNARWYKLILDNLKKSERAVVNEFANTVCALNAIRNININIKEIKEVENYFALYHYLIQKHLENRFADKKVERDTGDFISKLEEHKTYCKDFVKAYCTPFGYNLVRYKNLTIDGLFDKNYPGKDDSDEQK


Target: T1, EsCas13d, nuclease-dead
Assay: crRNA (strand 1, pre-loaded); Mg2+; 40 mM Tris-HCl pH 7.5, 150 mM NaCl, 6 mM MgCl2, 1 mM DTT, 0.1% Tween-20, 0.2 mg/ml BSA; 25 C; 10 min per concentration, then washed
Conditions: tags: His6-TwinStrep-SUMO cleaved; N-terminal SNAP kept (SNAP-Surface 488); label: 3' end held by stalled T7 RNA polymerase

Binder	Kd
target 1 MT 5'PFS UUA 3'PFS CUC (mixed) RNA 1: CACCCGUGCAAAAAUGCAGGGGUCUAAAACUGAGCGGAUAACCUCUCUAUGG RNA 2: GGGAAUGGAUCCACAUCUACGAAUUCUUACCAUAGAGAGGUUAUCCGCUCACUCAGAUCGGAAGAGCACACGU	16 ± 4 nM
target 1 MT 5'PFS GUC 3'PFS AGU (mixed) RNA 1: CACCCGUGCAAAAAUGCAGGGGUCUAAAACUGAGCGGAUAACCUCUCUAUGG RNA 2: GGGAAUGGAUCCACAUCUACGAAUUCGUCCCAUAGAGAGGUUAUCCGCUCAAGUAGAUCGGAAGAGCACACGU	20.6 ± 2.7 nM
target 1 MT 5'PFS CCG 3'PFS UCG (mixed) RNA 1: CACCCGUGCAAAAAUGCAGGGGUCUAAAACUGAGCGGAUAACCUCUCUAUGG RNA 2: GGGAAUGGAUCCACAUCUACGAAUUCCCGCCAUAGAGAGGUUAUCCGCUCAUCGAGAUCGGAAGAGCACACGU	3.4 ± 1.3 nM
target 1 MT 5'PFS GUC 3'PFS AGG (mixed) RNA 1: CACCCGUGCAAAAAUGCAGGGGUCUAAAACUGAGCGGAUAACCUCUCUAUGG RNA 2: GGGAAUGGAUCCACAUCUACGAAUUCGUCCCAUAGAGAGGUUAUCCGCUCAAGGAGAUCGGAAGAGCACACGU	46 ± 9 nM
target 1 MT 5'PFS GCG 3'PFS CCG (mixed) RNA 1: CACCCGUGCAAAAAUGCAGGGGUCUAAAACUGAGCGGAUAACCUCUCUAUGG RNA 2: GGGAAUGGAUCCACAUCUACGAAUUCGCGCCAUAGAGAGGUUAUCCGCUCACCGAGAUCGGAAGAGCACACGU	12.4 ± 3.4 nM
target 1 MT 5'PFS GUC 3'PFS AGA (mixed) RNA 1: CACCCGUGCAAAAAUGCAGGGGUCUAAAACUGAGCGGAUAACCUCUCUAUGG RNA 2: GGGAAUGGAUCCACAUCUACGAAUUCGUCCCAUAGAGAGGUUAUCCGCUCAAGAAGAUCGGAAGAGCACACGU	19.5 ± 3.85 nM
target 1 MT 5'PFS GUA 3'PFS UUC (mixed) RNA 1: CACCCGUGCAAAAAUGCAGGGGUCUAAAACUGAGCGGAUAACCUCUCUAUGG RNA 2: GGGAAUGGAUCCACAUCUACGAAUUCGUACCAUAGAGAGGUUAUCCGCUCAUUCAGAUCGGAAGAGCACACGU	9.25 ± 1.1 nM
target 1 MT 5'PFS GCG 3'PFS AAU (mixed) RNA 1: CACCCGUGCAAAAAUGCAGGGGUCUAAAACUGAGCGGAUAACCUCUCUAUGG RNA 2: GGGAAUGGAUCCACAUCUACGAAUUCGCGCCAUAGAGAGGUUAUCCGCUCAAAUAGAUCGGAAGAGCACACGU	33.5 ± 9.5 nM
target 1 MT 5'PFS GGG 3'PFS ACU (mixed) RNA 1: CACCCGUGCAAAAAUGCAGGGGUCUAAAACUGAGCGGAUAACCUCUCUAUGG RNA 2: GGGAAUGGAUCCACAUCUACGAAUUCGGGCCAUAGAGAGGUUAUCCGCUCAACUAGAUCGGAAGAGCACACGU	14.2 ± 1.3 nM
target 1 MT 5'PFS GCG 3'PFS AAA (mixed) RNA 1: CACCCGUGCAAAAAUGCAGGGGUCUAAAACUGAGCGGAUAACCUCUCUAUGG RNA 2: GGGAAUGGAUCCACAUCUACGAAUUCGCGCCAUAGAGAGGUUAUCCGCUCAAAAAGAUCGGAAGAGCACACGU	~37 nM
target 1 MT 5'PFS GUC 3'PFS CAG (mixed) RNA 1: CACCCGUGCAAAAAUGCAGGGGUCUAAAACUGAGCGGAUAACCUCUCUAUGG RNA 2: GGGAAUGGAUCCACAUCUACGAAUUCGUCCCAUAGAGAGGUUAUCCGCUCACAGAGAUCGGAAGAGCACACGU	~31.5 nM
target 1 MT 5'PFS GUC 3'PFS CAU (mixed) RNA 1: CACCCGUGCAAAAAUGCAGGGGUCUAAAACUGAGCGGAUAACCUCUCUAUGG RNA 2: GGGAAUGGAUCCACAUCUACGAAUUCGUCCCAUAGAGAGGUUAUCCGCUCACAUAGAUCGGAAGAGCACACGU	24.5 ± 9 nM
target 1 MT 5'PFS GUA 3'PFS UUU (mixed) RNA 1: CACCCGUGCAAAAAUGCAGGGGUCUAAAACUGAGCGGAUAACCUCUCUAUGG RNA 2: GGGAAUGGAUCCACAUCUACGAAUUCGUACCAUAGAGAGGUUAUCCGCUCAUUUAGAUCGGAAGAGCACACGU	8.21 ± 0.5 nM
target 1 MT 5'PFS CCG 3'PFS UCC (mixed) RNA 1: CACCCGUGCAAAAAUGCAGGGGUCUAAAACUGAGCGGAUAACCUCUCUAUGG RNA 2: GGGAAUGGAUCCACAUCUACGAAUUCCCGCCAUAGAGAGGUUAUCCGCUCAUCCAGAUCGGAAGAGCACACGU	5.6 ± 2.35 nM
target 1 MT 5'PFS AUA 3'PFS ACU (mixed) RNA 1: CACCCGUGCAAAAAUGCAGGGGUCUAAAACUGAGCGGAUAACCUCUCUAUGG RNA 2: GGGAAUGGAUCCACAUCUACGAAUUCAUACCAUAGAGAGGUUAUCCGCUCAACUAGAUCGGAAGAGCACACGU	15.5 ± 4 nM
target 1 MT 5'PFS GCG 3'PFS AAC (mixed) RNA 1: CACCCGUGCAAAAAUGCAGGGGUCUAAAACUGAGCGGAUAACCUCUCUAUGG RNA 2: GGGAAUGGAUCCACAUCUACGAAUUCGCGCCAUAGAGAGGUUAUCCGCUCAAACAGAUCGGAAGAGCACACGU	32 ± 15 nM
target 1 C7A,U11G (mixed) RNA 1: CACCCGUGCAAAAAUGCAGGGGUCUAAAACUGAGCGGAUAACCUCUCUAUGG RNA 2: GGGAAUGGAUCCACAUCUACGAAUUCGUACCAUAGAGAGGGUAUACGCUCACCGAGAUCGGAAGAGCACACGU	13.4 ± 0.6 nM
target 1 MT 5'PFS GUA 3'PFS UUG (mixed) RNA 1: CACCCGUGCAAAAAUGCAGGGGUCUAAAACUGAGCGGAUAACCUCUCUAUGG RNA 2: GGGAAUGGAUCCACAUCUACGAAUUCGUACCAUAGAGAGGUUAUCCGCUCAUUGAGAUCGGAAGAGCACACGU	8.11 ± 0.52 nM
target 1 MT 5'PFS UUA 3'PFS CUA (mixed) RNA 1: CACCCGUGCAAAAAUGCAGGGGUCUAAAACUGAGCGGAUAACCUCUCUAUGG RNA 2: GGGAAUGGAUCCACAUCUACGAAUUCUUACCAUAGAGAGGUUAUCCGCUCACUAAGAUCGGAAGAGCACACGU	~47 nM
target 1 MT 5'PFS GUA 3'PFS UUA (mixed) RNA 1: CACCCGUGCAAAAAUGCAGGGGUCUAAAACUGAGCGGAUAACCUCUCUAUGG RNA 2: GGGAAUGGAUCCACAUCUACGAAUUCGUACCAUAGAGAGGUUAUCCGCUCAUUAAGAUCGGAAGAGCACACGU	9.85 ± 1.15 nM
target 1 MT 5'PFS GUU 3'PFS ACU (mixed) RNA 1: CACCCGUGCAAAAAUGCAGGGGUCUAAAACUGAGCGGAUAACCUCUCUAUGG RNA 2: GGGAAUGGAUCCACAUCUACGAAUUCGUUCCAUAGAGAGGUUAUCCGCUCAACUAGAUCGGAAGAGCACACGU	15.8 ± 1.8 nM
target 1 MT 5'PFS GCG 3'PFS CCU (mixed) RNA 1: CACCCGUGCAAAAAUGCAGGGGUCUAAAACUGAGCGGAUAACCUCUCUAUGG RNA 2: GGGAAUGGAUCCACAUCUACGAAUUCGCGCCAUAGAGAGGUUAUCCGCUCACCUAGAUCGGAAGAGCACACGU	18.5 ± 6.5 nM
target 1 MT 5'PFS GCG 3'PFS AAG (mixed) RNA 1: CACCCGUGCAAAAAUGCAGGGGUCUAAAACUGAGCGGAUAACCUCUCUAUGG RNA 2: GGGAAUGGAUCCACAUCUACGAAUUCGCGCCAUAGAGAGGUUAUCCGCUCAAAGAGAUCGGAAGAGCACACGU	25 ± 7 nM
target 1 insA 3' of 8,insA 3' of 6 (mixed) RNA 1: CACCCGUGCAAAAAUGCAGGGGUCUAAAACUGAGCGGAUAACCUCUCUAUGG RNA 2: GGGAAUGGAUCCACAUCUACGAAUUCGUACCAUAGAGAGGUUAUACCAGCUCACCGAGAUCGGAAGAGCACACGU	13.8 ± 0.7 nM
target 1 MT 5'PFS GGC 3'PFS CCU (mixed) RNA 1: CACCCGUGCAAAAAUGCAGGGGUCUAAAACUGAGCGGAUAACCUCUCUAUGG RNA 2: GGGAAUGGAUCCACAUCUACGAAUUCGGCCCAUAGAGAGGUUAUCCGCUCACCUAGAUCGGAAGAGCACACGU	15.9 ± 4.7 nM
target 1 U11C,G17U (mixed) RNA 1: CACCCGUGCAAAAAUGCAGGGGUCUAAAACUGAGCGGAUAACCUCUCUAUGG RNA 2: GGGAAUGGAUCCACAUCUACGAAUUCGUACCAUAUAGAGGCUAUCCGCUCACCGAGAUCGGAAGAGCACACGU	65 ± 27 nM
target 1 MT 5'PFS GGU 3'PFS CCU (mixed) RNA 1: CACCCGUGCAAAAAUGCAGGGGUCUAAAACUGAGCGGAUAACCUCUCUAUGG RNA 2: GGGAAUGGAUCCACAUCUACGAAUUCGGUCCAUAGAGAGGUUAUCCGCUCACCUAGAUCGGAAGAGCACACGU	75.5 ± 30.5 nM
target 1 MT 5'PFS GUC 3'PFS AGC (mixed) RNA 1: CACCCGUGCAAAAAUGCAGGGGUCUAAAACUGAGCGGAUAACCUCUCUAUGG RNA 2: GGGAAUGGAUCCACAUCUACGAAUUCGUCCCAUAGAGAGGUUAUCCGCUCAAGCAGAUCGGAAGAGCACACGU	9.1 ± 1.75 nM
